Laboratory results reported in patent US20260000597A1 (priority 2018, published 2026).

Target: AchR (Homo sapiens, UniProt P02708)
Assay: ELISA of screened peptide phages on AchR versus streptavidin (OD450)
Assay type: binding
Settings: absorbance at 450 nm, Spep-2 positive control
How it was run: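 Phage supernatants from 4th–5th round plaques, in 2% BSA, applied 1 h at 30 °C to wells coated with 5 μg/ml AchR or streptavidin. Bound phage detected with HRP anti-M13 and TMB at OD450; value given as AchR/streptavidin signal ratio.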

[1] = ELISA of selected 11-mer (L2) peptide phages on AchR
[2] = ELISA of selected 14-mer (L3) peptide phages on AchR

Chain of AchR (P02708 21-457): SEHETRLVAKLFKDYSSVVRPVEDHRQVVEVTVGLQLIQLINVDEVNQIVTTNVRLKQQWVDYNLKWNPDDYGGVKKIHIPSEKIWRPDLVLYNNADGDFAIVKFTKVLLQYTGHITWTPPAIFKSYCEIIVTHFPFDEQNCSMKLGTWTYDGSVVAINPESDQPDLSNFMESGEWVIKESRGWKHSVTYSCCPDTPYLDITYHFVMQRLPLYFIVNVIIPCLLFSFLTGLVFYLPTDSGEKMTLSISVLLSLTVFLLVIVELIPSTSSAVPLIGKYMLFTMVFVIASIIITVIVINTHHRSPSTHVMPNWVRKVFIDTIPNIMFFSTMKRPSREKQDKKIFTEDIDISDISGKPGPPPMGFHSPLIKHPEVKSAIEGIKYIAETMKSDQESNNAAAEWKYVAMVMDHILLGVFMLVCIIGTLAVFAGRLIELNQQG

| Substance | OD [1] | OD [2] |
| --- | --- | --- |
| L2-169 (HDPRHKKTPTK; AchR binding peptide) [Peptide L2-169] | 0.733 |  |
| L2-170 (QVHRNKRYTDR; AchR binding peptide) [Peptide L2-170] | 0.718 |  |
| L2-171 (YGTRPKKYVSK; AchR binding peptide) [Peptide L2-171] | 0.689 |  |
| L2-172 (CTWRGRRPHDK; AchR binding peptide) [Peptide L2-172] | 0.685 |  |
| L2-173 (SWAKARKLVHR; AchR binding peptide) [Peptide L2-173] | 0.705 |  |
| L2-174 (PLFKSRRAYVR; AchR binding peptide) [Peptide L2-174] | 0.693 |  |
| L2-175 (CVMRCRRSEDK; AchR binding peptide) [Peptide L2-175] | 0.65 |  |
| L2-176 (WWHKHRRAQSK; AchR binding peptide) [Peptide L2-176] | 0.574 |  |
| L2-177 (LNSKPRRVEFK; AchR binding peptide) [Peptide L2-177] | 0.768 |  |
| L2-178 (VPYRHRRMQFK; AchR binding peptide) [Peptide L2-178] | 0.718 |  |
| L2-179 (GIAKSKRNAGR; AchR binding peptide) [Peptide L2-179] | 0.716 |  |
| L2-180 (DPEKWRKFYDR; AchR binding peptide) [Peptide L2-180] | 0.744 |  |
| L2-181 (PGARCRKQDVK; AchR binding peptide) [Peptide L2-181] | 0.749 |  |
| L2-182 (HEQRPKKGQQK; AchR binding peptide) [Peptide L2-182] | 0.681 |  |
| L2-183 (TCDRARKESFR; AchR binding peptide) [Peptide L2-183] | 0.688 |  |
| L2-184 (MHQRERRNFVK; AchR binding peptide) [Peptide L2-184] | 0.736 |  |
| L2-185 (FITRFRKMGEK; AchR binding peptide) [Peptide L2-185] | 0.742 |  |
| L2-186 (PNWKVRRFGDK; AchR binding peptide) [Peptide L2-186] | 0.683 |  |

| Substance | OD [1] | OD [2] |
| --- | --- | --- |
| L2-187 (TAAKWKKIIMK; AchR binding peptide) [Peptide L2-187] | 0.731 |  |
| L2-188 (CLWRLRKDNGR; AchR binding peptide) [Peptide L2-188] | 0.73 |  |
| L2-189 (AHIKSRKVWSR; AchR binding peptide) [Peptide L2-189] | 0.696 |  |
| L2-190 (NLVKSKKVEEK; AchR binding peptide) [Peptide L2-190] | 0.721 |  |
| L2-191 (PDSRLKKHEAK; AchR binding peptide) [Peptide L2-191] | 0.689 |  |
| L2-192 (EHVKLKRLDFR; AchR binding peptide) [Peptide L2-192] | 0.685 |  |
| L2-193 (PALRMRRWCQK; AchR binding peptide) [Peptide L2-193] | 0.705 |  |
| L2-194 (HLEKHRRCEFK; AchR binding peptide) [Peptide L2-194] | 0.693 |  |
| L2-195 (CQAKTRKAEDR; AchR binding peptide) [Peptide L2-195] | 0.65 |  |
| L2-196 (QNMRMKRFIQR; AchR binding peptide) [Peptide L2-196] | 0.574 |  |
| L2-197 (CPYRIRRGPGK; AchR binding peptide) [Peptide L2-197] | 0.768 |  |
| L2-198 (DIYKGKRTLVK; AchR binding peptide) [Peptide L2-198] | 0.718 |  |
| L2-199 (EICKNRKPANR; AchR binding peptide) [Peptide L2-199] | 0.716 |  |
| L2-200 (QGMKLKRIWSK; AchR binding peptide) [Peptide L2-200] | 0.744 |  |
| L3-1 (ALGRTKRLHMRVHV; AchR binding peptide) [Peptide L3-1] |  | 0.853 |
| L3-2 (SFYKERKCQFRSGL; AchR binding peptide) [Peptide L3-2] |  | 0.841 |
| L3-3 (SGVRYRKWWIRSVV; AchR binding peptide) [Peptide L3-3] |  | 0.88 |
